Reference: publication PMC3229523, “Identification of Lactoferricin B Intracellular Targets Using an Escherichia coli Proteome Chip” (PLoS ONE, 2011)
Ends that are not written are not given here. * marks the point of attachment. Biotin = O=C1N[C@H]2[C@H](CS[C@H]2CCCCC(=O)*)N1

Tests used:
Experiment in all cases: peptide or protein array; E. coli proteome chip: purified His-tagged proteins printed in duplicate on Fullmoon slides, blocked with 1% BSA; 10 nM N-terminal biotinylated LfcinB with 1% BSA, room temperature, 1 h; detected with DyLight 649-labeled streptavidin, ratio to DyLight 549-labeled anti-His antibody; ProCAT normalisation, local cut-off; triplicate chips
Settings in all cases: both partners purified
[1] = biological target: T1, IlvL (E. coli K-12, UniProt P62522 1-32)
T1 construct: IlvL, E. coli K-12
T1 chain (looked up): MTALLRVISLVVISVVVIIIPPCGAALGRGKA

[2] = biological target: T2, YegJ (E. coli K-12, UniProt P76394 1-153)
T2 construct: YegJ, E. coli K-12
T2 sequence (looked up): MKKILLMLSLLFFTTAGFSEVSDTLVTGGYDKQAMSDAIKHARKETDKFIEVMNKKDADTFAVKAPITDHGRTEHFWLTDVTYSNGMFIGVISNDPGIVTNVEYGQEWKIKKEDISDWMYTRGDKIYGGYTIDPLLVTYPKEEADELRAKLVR

[3] = biological target: T3, YciT (E. coli K-12, UniProt P76034 1-249)
T3 construct: YciT, E. coli K-12
T3 sequence (looked up): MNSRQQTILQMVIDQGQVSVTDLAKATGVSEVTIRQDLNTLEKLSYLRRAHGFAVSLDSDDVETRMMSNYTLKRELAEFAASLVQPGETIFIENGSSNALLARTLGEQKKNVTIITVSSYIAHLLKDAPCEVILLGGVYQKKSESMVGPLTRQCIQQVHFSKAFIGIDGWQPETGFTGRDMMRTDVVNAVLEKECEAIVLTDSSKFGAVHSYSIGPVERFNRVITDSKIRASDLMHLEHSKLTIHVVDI

[4] = biological target: T4, FimZ (E. coli K-12, UniProt P0AEL8 1-210)
T4 construct: FimZ, E. coli K-12
T4 sequence (looked up): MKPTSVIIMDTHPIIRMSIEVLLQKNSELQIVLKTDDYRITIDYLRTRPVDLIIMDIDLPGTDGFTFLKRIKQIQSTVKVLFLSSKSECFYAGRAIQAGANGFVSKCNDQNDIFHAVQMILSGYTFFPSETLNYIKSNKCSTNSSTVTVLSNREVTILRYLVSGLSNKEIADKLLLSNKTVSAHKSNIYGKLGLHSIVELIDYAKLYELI

[5] = biological target: T5, YjfW (E. coli K-12, UniProt P39305 1-284)
T5 construct: YjfW, E. coli K-12
T5 sequence (looked up): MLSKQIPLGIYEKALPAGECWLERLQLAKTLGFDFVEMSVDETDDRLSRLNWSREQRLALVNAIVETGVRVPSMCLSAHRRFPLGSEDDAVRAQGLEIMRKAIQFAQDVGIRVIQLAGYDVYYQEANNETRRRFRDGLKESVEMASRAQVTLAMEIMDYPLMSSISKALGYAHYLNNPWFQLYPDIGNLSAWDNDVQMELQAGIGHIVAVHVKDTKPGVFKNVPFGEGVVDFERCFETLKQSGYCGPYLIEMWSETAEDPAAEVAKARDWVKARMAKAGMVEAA

[6] = biological target: T6, DnaT (E. coli K-12, UniProt P0A8J2 1-179)
T6 construct: DnaT, E. coli K-12
T6 sequence (looked up): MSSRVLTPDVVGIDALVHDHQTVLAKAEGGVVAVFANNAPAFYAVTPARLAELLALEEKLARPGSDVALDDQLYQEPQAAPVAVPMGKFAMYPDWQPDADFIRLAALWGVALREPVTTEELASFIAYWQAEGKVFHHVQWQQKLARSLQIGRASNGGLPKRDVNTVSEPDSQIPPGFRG

[7] = biological target: T7, YdcC (E. coli K-12, UniProt P28917 1-378)
T7 construct: YdcC, E. coli K-12
T7 sequence (looked up): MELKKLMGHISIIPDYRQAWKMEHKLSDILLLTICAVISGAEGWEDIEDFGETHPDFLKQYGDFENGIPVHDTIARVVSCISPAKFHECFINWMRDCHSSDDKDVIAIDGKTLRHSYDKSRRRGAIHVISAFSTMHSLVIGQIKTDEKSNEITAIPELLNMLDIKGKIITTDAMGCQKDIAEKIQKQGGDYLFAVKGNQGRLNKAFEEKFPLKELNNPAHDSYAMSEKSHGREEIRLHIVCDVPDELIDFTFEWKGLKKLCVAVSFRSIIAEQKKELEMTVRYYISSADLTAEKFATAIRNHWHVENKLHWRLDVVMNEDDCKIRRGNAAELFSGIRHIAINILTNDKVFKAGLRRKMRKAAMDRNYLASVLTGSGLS

Measured: binding result

B1: N-terminal biotinylated Lactoferricin B (peptide, UniProt P24627 36-60, looked up)
peptide: Biotin-FKCRRWQWRMKKLGAPSITCVRRAF
modifications: ends and bridges not checked
notes: lactoferricin B (LfcinB), cationic antimicrobial peptide of 25 amino acids; also called biotinylated LfcinB; biotin-labeled LfcinB; source: bought: Kelowna Inc
binds: all assays above
